Our source for the Kd, koff and kon values is patent publication US20260193326A1 (published 2026).

For orientation: Kd means the concentration at which binding is half-saturated. A high value points to a looser complex. The koff is a measure of how fast the partners let go of each other. Read a high koff as fast dissociation. In general, kon refers to the rate constant with which the complex forms.

Common to all, as to test: SPR, AAV on CM5 chip;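 note: surface plasmon resonance with AAV amine-coupled to the chip as ligand, nanobodies injected as analyte over a concentration series, rate constants and affinity fitted from binding curves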
A general note: SPR reads the build-up and loss of mass on a sensor chip optically.

For one experiment, the target named is T1, AAV5.
T1 construct: also called adeno-associated virus serotype 5

A further experiment has as its target T2, AAV8.
T2 construct: also called adeno-associated virus serotype 8

Another experiment addresses T3, AAV9.
T3 construct: also called adeno-associated virus serotype 9

Experimental for AAV5: (§1) AAV was amine-coupled to a CM5 sensor chip at a density of 500-800 response units (RU). Nanobodies were injected at seven concentrations (1-100 nM) with a flow rate of 45 μL/min, and chip regeneration was performed using glycine-HCl (pH 1.5). Binding curves at different nanobody concentrations were used to calculate kinetic parameters (Kₐ, Kd, KD) (Table 2 and FIG. 2).
Experimental for AAV8: as §1
Experimental for AAV9: as §1

B1: A4-015 (VHH)
VHH: VQLQESGGGLVQPGGSLRLSCAASGSIFSINLMGWYRQAAGKQRELVATITPGGNTNYAGSVKGRFTISRDNAKNTVYLQMNSLRPEDTAVYYCHVDEVRQSSWTTSNLWGQGTQVTVSS
For the molecule B1, in the experiment with AAV5, the affinity, expressed as Kd, was 2.76 nM; the koff was found to be 0.00052 s⁻¹; the association rate constant (kon) was 189000 M⁻¹ s⁻¹. Further, in the experiment with AAV8, the affinity, expressed as Kd, was 9.74 nM; the koff stood at 0.0017 s⁻¹; the kon amounted to 174000 M⁻¹ s⁻¹. In addition, in the experiment with AAV9, the affinity, expressed as Kd, was 3.39 nM; the dissociation rate constant (koff) amounted to 0.00017 s⁻¹; the association rate constant (kon) turned out to be 50100 M⁻¹ s⁻¹.

B2: A4-028 (VHH)
VHH: VQLQESGGGLVQPGGSLRLSCAASGSNFSINTMGWYRQAPGKQRELVATVTRGGDTNYADSVKGRFTISRDNAKNTVYLQMNSLRPEDTAVYYCHVDEIRESSWTTSNLWGQGTQVTVSS
In the experiment with AAV5, B2 returned a Kd of 26.4 nM, a koff of 0.00162 s⁻¹ and a kon of 61300 M⁻¹ s⁻¹. Also, in the experiment with AAV8, the Kd was 6.34 nM, the koff was 0.00084 s⁻¹ and the kon was found to be 133000 M⁻¹ s⁻¹. Besides, in the experiment with AAV9, binding was put at a Kd of 1.09 nM, the koff turned out to be 9e-05 s⁻¹ and the kon was determined as 82400 M⁻¹ s⁻¹.

B3: A4-016 (VHH)
VHH: VQLQESGGGLVQPGGSLRLSCAASGSIFSINLMGWYRQAPGKQRELVATITPGGNTNYAGSVKGRFTISRDNAKNTVYLQMNSLRPEDTAVYYCHVDEVRQSSWTTSNLWGQGTQVTVSS
In the experiment with AAV5, B3 returned a Kd of 23.9 nM, a koff of 0.00158 s⁻¹ and a kon of 66000 M⁻¹ s⁻¹. In the experiment with AAV8, this molecule displayed a Kd of 9.58 nM, a koff of 0.00146 s⁻¹ and an association rate constant (kon) of 152000 M⁻¹ s⁻¹. In the experiment with AAV9, the affinity, expressed as Kd, was 131 nM; the koff was determined as 0.00047 s⁻¹; the on-rate (kon) was 3600 M⁻¹ s⁻¹.

B4: A4-018 (VHH)
VHH: VQLQESGGGLVQAGGSLRLSCAASGSRFSINTMGWYRQAPGKQREFVATVTRGGNTNYAESVKGRFTISRDNAKNTVYLQMNSLRPEDTAVYYCHVDEVRDSSWTTSNIWGQGTQVTVSS
On to B4, for which the equilibrium dissociation constant (Kd) with AAV5 came out at 0.962 nM; in the experiment with AAV8 it was 34.9 nM; with AAV9, 62.1 nM. Also, the koff with AAV5 is 0.00014 s⁻¹; with AAV8 it was 0.00392 s⁻¹; with AAV9 it was 0.00745 s⁻¹. Also, the values for the kon with AAV5, with AAV8 and with AAV9 were 146000 M⁻¹ s⁻¹, 112000 M⁻¹ s⁻¹ and 120000 M⁻¹ s⁻¹, respectively.

B5: A4-025 (VHH)
VHH: VQLQESGGGLVQPGGSLRLSCAASGSNFRINTMGWYRQAPGKQRELVATVTRGGSTNYADSVKGRFTISRDNPKDTVYLQMNSLRPEDTAVYYCHVDEVRESSWTTSNLWGQGTQVTVSS
Turning to B5, in the experiment with AAV5, the Kd came to 85.5 nM, the dissociation rate constant (koff) is 0.00041 s⁻¹ and the kon was determined as 4800 M⁻¹ s⁻¹. In the experiment with AAV8, this molecule registered a Kd of 2.09 nM, a koff of 0.00026 s⁻¹ and a kon of 124000 M⁻¹ s⁻¹. In the experiment with AAV9, this molecule gave a Kd of 0.737 nM, a koff of 0.00012 s⁻¹ and a kon of 163000 M⁻¹ s⁻¹.

B6: A4-019 (VHH)
VHH: VQLQESGGGLVQAGGSLRLSCAASGSTFSINTMGWYRQAPGKQRELVATITRGGSTNYADSVKGRFTISRDNAKNTVYLQMNSLRPEDTAVYYCHVDEVRQSSWTTSNIWGQGTQVTVSS
As to B6, in the experiment with AAV5, binding was put at a Kd of 48.9 nM, the koff came out at 0.00156 s⁻¹ and the kon came to 31900 M⁻¹ s⁻¹. Besides, in the experiment with AAV8, the Kd is 6.84 nM, the koff worked out at 0.00077 s⁻¹ and the kon was 113000 M⁻¹ s⁻¹. Besides, in the experiment with AAV9, the Kd is 451 nM, the koff came to 0.00525 s⁻¹ and the kon was found to be 11700 M⁻¹ s⁻¹.

B7: A4-020 (VHH)
VHH: VQLQESGGGLVQAGGSLRLSCAASGSTFSINTMGWYRQAPGKQRELVATITRGGNTNYADSVKGRFTISRDNAKNTVYLQMNSLRPEDTAVYYCHVDEVRQSSWTTSNLWGQGTQVTVSS
On to B7, for which the Kd is 169 nM with AAV5, 0.506 nM in the experiment with AAV8 and 73.7 nM with AAV9. The koff in the experiment with AAV5 was 0.00094 s⁻¹; in the experiment with AAV8, 5.66e-05 s⁻¹; in the experiment with AAV9, 0.00169 s⁻¹. Moreover, the kon with AAV5 was found to be 5550 M⁻¹ s⁻¹; in the experiment with AAV8 it was 112000 M⁻¹ s⁻¹; with AAV9, 23000 M⁻¹ s⁻¹.

B8: A4-017 (VHH)
VHH: VQLQESGGGLVQPGGSLRLSCAASGSIFSINLMGWYRQAPGKQRELVATITRGGNTNYAGSVKGRFTISRDNAKNTVYLQMNSLRPEDTAVYYCHVDEVRQSSWTTSNLWGQGTQVTVSS
For the molecule B8, the values for the Kd in the experiment with AAV5, in the experiment with AAV8 and in the experiment with AAV9 were 542 nM, 140 nM and 0.724 nM, respectively. Moreover, the koff with AAV5 came to 0.00164 s⁻¹; in the experiment with AAV8, 0.0002 s⁻¹; with AAV9, 4e-05 s⁻¹. Moreover, the results for the on-rate constant (kon) with AAV5, with AAV8 and in the experiment with AAV9 were 3030 M⁻¹ s⁻¹, 1430 M⁻¹ s⁻¹ and 55300 M⁻¹ s⁻¹, respectively.

B9: A4-023 (VHH)
VHH: VQLQESGGGLVQPGGSLRLSCAASGSAFSINTMGWYRQAPGKQRELVASVTPGGSTNYADSVKGRFTISRDNAKNTIYLQMNSLRPEDTAVYYCHLDEVRESSWTTSNLWGQGTQVTVSS
In the experiment with AAV5, B9 returned a Kd of 12.4 nM, a koff of 0.00126 s⁻¹ and a kon of 102000 M⁻¹ s⁻¹. In the experiment with AAV8, this molecule returned a Kd of 143 nM, a koff of 0.00125 s⁻¹ and a kon of 8730 M⁻¹ s⁻¹. In the experiment with AAV9, this molecule yielded a Kd of 2.88 nM, an off-rate constant (koff) of 0.00056 s⁻¹ and a kon of 195000 M⁻¹ s⁻¹.

B10: A4-026 (VHH)
VHH: VQLQESGGGLVQPGGSLRLSCAASGSNFRINTMGWYRQAPGKQRELVAPVTRGGSTNYADSVKGRFTISRDNAKNTVYLQMNSLRPEDTAVYYCHVDEVRESSWTTSNLWGQGTQVTVSS
On to B10, for which, in the experiment with AAV5, the Kd was found to be 37.4 nM, the koff amounted to 0.00625 s⁻¹ and the kon was 167000 M⁻¹ s⁻¹. In addition, in the experiment with AAV8, the dissociation constant Kd was 27.2 nM, the koff turned out to be 0.00184 s⁻¹ and the kon was 67700 M⁻¹ s⁻¹. Further, in the experiment with AAV9, binding was characterised by a dissociation constant (Kd) of 31 nM, the koff came to 0.00253 s⁻¹ and the on-rate constant (kon) was found to be 81600 M⁻¹ s⁻¹.

B11: A4-027 (VHH)
VHH: VQLQESGGGLVQPGGSLRLSCAASGSNFSINTMGWYRQAPGKQRELVAALTRGGSTNYADSVKGRFTISRDNAKNTVYLQMNSLRPEDTAVYYCHVDEVRESSWTTSNLWGQGTQVTVSS
As for B11, in the experiment with AAV5, the affinity, expressed as Kd, was 236 nM; the koff came to 0.00194 s⁻¹; the association rate constant (kon) came to 8220 M⁻¹ s⁻¹. In the experiment with AAV8, this molecule registered a Kd of 105 nM, a koff of 0.00085 s⁻¹ and a kon of 8100 M⁻¹ s⁻¹. In the experiment with AAV9, the affinity, expressed as Kd, was 208 nM; the koff is 0.00085 s⁻¹; the kon was 4090 M⁻¹ s⁻¹.

B12: A4-022 (VHH)
VHH: VQLQESGGGLVQPGGSLRLSCAASGSGFSINTMGWYRQAPGKQRELVATVTRDGSTNYADFVKGRFTISRDNAKNTVYLQMNSLRPEDTAVYYCHLDEVRESSWTTSNLWGQGTQVTVSS
On to B12, for which the Kd with AAV5 was 9.61 nM; in the experiment with AAV8 it was 1.19 nM; with AAV9 it was 28.5 nM. The off-rate constant (koff) was determined as 0.00152 s⁻¹ with AAV5, 6.2e-05 s⁻¹ with AAV8 and 0.0001 s⁻¹ with AAV9. Moreover, the figures for the kon with AAV5, with AAV8 and with AAV9 were 158000 M⁻¹ s⁻¹, 52100 M⁻¹ s⁻¹ and 3510 M⁻¹ s⁻¹, respectively.
